A word on the EC50: it is the concentration that produces a half-maximal response. A high value points to a need for much substance.

Test [1] addresses T1, Human FAP expressed on the cell surface (WI38, CHO-FAP1.9, U87MG cells) (human, UniProt Q12884 1-760).
T1 construct: whole, on cells; Endogenous on WI38 and U87MG cells; from a human FAP cDNA (OriGene) in CHO-FAP1.9 cells; also called hFAP; FAP+ cells
T1 sequence (looked up): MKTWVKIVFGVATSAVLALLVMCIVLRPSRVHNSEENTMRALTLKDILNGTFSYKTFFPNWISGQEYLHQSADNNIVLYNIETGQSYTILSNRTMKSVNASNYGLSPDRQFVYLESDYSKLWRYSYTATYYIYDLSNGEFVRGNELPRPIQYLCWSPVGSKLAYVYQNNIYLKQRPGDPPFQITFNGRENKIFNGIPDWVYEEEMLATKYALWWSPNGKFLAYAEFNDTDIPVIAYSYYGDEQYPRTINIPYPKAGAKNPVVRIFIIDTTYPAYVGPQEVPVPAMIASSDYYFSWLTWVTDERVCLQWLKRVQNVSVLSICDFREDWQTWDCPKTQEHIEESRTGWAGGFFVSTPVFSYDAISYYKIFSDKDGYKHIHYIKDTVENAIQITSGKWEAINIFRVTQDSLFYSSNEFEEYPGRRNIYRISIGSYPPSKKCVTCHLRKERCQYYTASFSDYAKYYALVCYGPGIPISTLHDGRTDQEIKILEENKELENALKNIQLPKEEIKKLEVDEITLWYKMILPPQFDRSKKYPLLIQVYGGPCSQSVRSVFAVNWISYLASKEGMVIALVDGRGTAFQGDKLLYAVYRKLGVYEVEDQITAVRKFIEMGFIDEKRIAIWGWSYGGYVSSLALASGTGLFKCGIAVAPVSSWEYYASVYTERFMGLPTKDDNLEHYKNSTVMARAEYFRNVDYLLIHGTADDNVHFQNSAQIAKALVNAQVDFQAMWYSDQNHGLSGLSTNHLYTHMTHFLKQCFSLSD
Put plainly: FACS on FAP-expressing WI38 cells, Penta-His AF647 detection. The procedure, abridged: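 WI38 cells (20,000/well) incubated 30 min on ice with 2-fold dilutions of His-tagged ankyrin repeat proteins, washed, stained with Penta-His AF647 plus live/dead dye, fixed. Median fluorescence by flow cytometry; EC50 from non-linear regression of binding curves.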

Test [2] deals with T2, Recombinant human FAP (fibroblast activation protein) (human, UniProt Q12884 26-760).
T2 sequence (looked up): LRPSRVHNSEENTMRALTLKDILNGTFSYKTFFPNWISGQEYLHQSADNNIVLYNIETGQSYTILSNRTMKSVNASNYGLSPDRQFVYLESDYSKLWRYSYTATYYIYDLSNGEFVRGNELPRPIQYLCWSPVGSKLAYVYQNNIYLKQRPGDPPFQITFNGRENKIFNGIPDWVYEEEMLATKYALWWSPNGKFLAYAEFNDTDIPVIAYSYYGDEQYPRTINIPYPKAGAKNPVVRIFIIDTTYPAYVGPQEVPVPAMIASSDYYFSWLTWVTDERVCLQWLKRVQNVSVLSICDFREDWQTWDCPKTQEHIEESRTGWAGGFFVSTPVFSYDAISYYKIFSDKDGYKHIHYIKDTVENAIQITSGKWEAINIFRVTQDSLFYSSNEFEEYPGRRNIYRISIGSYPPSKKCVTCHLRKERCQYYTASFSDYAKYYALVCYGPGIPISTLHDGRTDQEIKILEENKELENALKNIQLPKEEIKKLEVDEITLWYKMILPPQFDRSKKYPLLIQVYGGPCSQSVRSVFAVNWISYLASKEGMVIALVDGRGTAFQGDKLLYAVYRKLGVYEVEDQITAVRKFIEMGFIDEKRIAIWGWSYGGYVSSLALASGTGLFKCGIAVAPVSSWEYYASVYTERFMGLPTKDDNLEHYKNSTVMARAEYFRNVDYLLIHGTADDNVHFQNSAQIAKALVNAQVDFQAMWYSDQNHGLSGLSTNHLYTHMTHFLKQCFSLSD
Put plainly: cell-based or functional assay.

Test [3] addresses T1, Human FAP expressed on the cell surface …. Kind of test: FACS on WI38 cells. The procedure: Using multi-well plates, 20,000 WI38 cells were added per well in 50 μl of PBS. 50 μl of appropriate dilutions (2× dilution steps) of ankyrin repeat protein was then added to the cells and incubated for 30 minutes on ice. After the ankyrin repeat protein-binding reaction, cells were washed twice with PBS. Direct immunofluorescent detection of the His-tagged ankyrin repeat proteins using Penta-His AF647 conjugate (QIAgen) and determination of live cells using LIVE/DEAD™ Fixable Green Dead Cell Stain Kit (ThermoFisher) were then performed together in one step. The Penta-His AF647 conjugate and the LIVE/DEAD™ Fixable Green dye were applied to the cells together in 1/200 (Penta-His) and 1/1000 (LID Fixable) final dilutions and incubated for 20-30 minutes on ice. After washing the cells with PBS, cells were re-suspended in 1× CellFix™ buffer (BD Biosciences) (10× stock was diluted 1/10 in water). […] Acquisition and FACS analysis, including the determination of median fluorescence intensity (MFI), were done within 5 days after staining using an AttuneNxT instrument. […]
Similarly, binding of the engineered ankyrin repeat proteins, i.e. DARPin® protein #34 and DARPin® protein #35, to FAP-expressing WI38 cells was also tested essentially as described above. Fold increase MFI was calculated by dividing the sample MFI by the MFI of the background control. […]

The target is the same in test [4]. Put plainly: FACS on CHO-FAP1.9 cells (human FAP transfectants).

B1: DARPin® protein #38 (designed binder)
chain: MRGSHHHHHHGSDLGKKLLEAARAGQDDEVRELLKAGADVNAKDEVGRTPLHLAAQIGHLEIVEVLLKAGADVNAKNRWGVTPLHVAAWVGHLEIVEVLLKAGADVNAKDQQGATPLHLAAIRGHLEIVEVLLKAGADVNAQDKSGKTPADLAADAGHEDIAEVLQKLN
Consider B1, for which the EC50 in test [1] amounted to 0.106 nM.

B2: DARPin® protein #35 (designed binder)
chain: MRGSHHHHHHGSDLGEKLLVAALYGQDDEVRELLKAGADVNAKDQWGLTPLHKAALQGHLEIVEVLLKAGADVNAKDERGHTPLHWAARFGHLEIVEVLLKAGADVNAQDQKGYTPADLAALWGHEDIAEVLQKAA
Take B2: the “FAP activity (%)” value in test [2] worked out at 90%. In addition, the EC50 in test [3] turned out to be 0.994 nM; in test [4] it was 2.02 nM.

B3: DARPin® protein #37 (designed binder)
chain: MRGSHHHHHHGSDLGEKLLVAALYGQDDEVRILLAAGADVNAKDQWGLTPLHKAALQGHLEIVEVLLKAGADVNAKDERGHTPLHWAARFGHLEIVEVLLKAGADVNAQDQKGYTPADLAALWGHEDIAEVLQKLN
In turn, B3 displayed an EC50 in test [1] of 0.118 nM.

B4: DARPin® protein #34 (designed binder)
chain: MRGSHHHHHHGSDLGKKLLEAARAGQDDEVRELLKAGADVNAKDVLGWTPLHLAAFEGHLEIVEVLLKAGADVNAKDKKGWTPLQLAARTGHLEIVEVLLKAGADVNAKDHIGATPLHLAAWQGHPEIVEVLLKAGADVNAQDKSGKTPADLAADAGHEDIAEVLQKAA
Consider B4, for which the “FAP activity (%)” value in test [2] is 93%. For the same molecule, the values for the EC50 in test [3] and in test [4] were 0.736 nM and 1.19 nM, respectively.

B5: DARPin® protein #36 (designed binder)
chain: MRGSHHHHHHGSDLGKKLLEAARAGQDDEVRILLAAGADVNAKDVLGWTPLHLAAFEGHLEIVEVLLKAGADVNAKDKKGWTPLQLAARTGHLEIVEVLLKAGADVNAKDHIGATPLHLAAWQGHPEIVEVLLKAGADVNAQDKSGKTPADLAADAGHEDIAEVLQKLN
As to B5, the EC50 in test [1] is 0.235 nM.

B6: DARPin® protein #39 (designed binder)
chain: MRGSHHHHHHGSDLGKKLLEAARAGQDDEVRELLKAGADVNAKDEWGKTPLHLAAIRGHLEIVEVLLKAGADVNAKDTHGITPLHLAAFVGHLEIVEVLLKAGADVNAKDYLGRTPLHIAAAKGHLEIVEVLLKAGADVNAQDKSGKTPADLAADAGHEDIVEVLQKLN
In test [1], B6 displayed an EC50 of 0.203 nM.

Values taken from patent US20220242973A1 (Molecular Partners, published 2022).
